{
  "source": "patent US20140080161A1",
  "about": "“PHOSPHATASE COUPLED KINASE ASSAY” (RESEARCH AND DIAGNOSTIC SYSTEMS, INC., priority 2010, published 2014)",
  "molecules": {"B1": {"name": "rhCD39L4: recombinant human CD39L4 phosphatase (protein, UniProt O75356 25-428, looked up)", "Nucleoside diphosphate …": "NQQTWFEGIFLSSMCPINVSASTLYGIMFDAGSTGTRIHVYTFVQKMPGQLPILEGEVFDSVKPGLSAFVDQPKQGAETVQGLLEVAKDSIPRSHWKKTPVVLKATAGLRLLPEHKAKALLFEVKEIFRKSPFLVPKGSVSIMDGSDEGILAWVTVNFLTGQLHGHRQETVGTLDLGGASTQITFLPQFEKTLEQTPRGYLTSFEMFNSTYKLYTHSYLGFGLKAARLATLGALETEGTDGHTFRSACLPRWLEAEWIFGGVKYQYGGNQEGEVGFEPCYAEVLRVVRGKLHQPEEVQRGSFYAFSYYYDRAVDTDMIDYEKGGILKVEDFERKAREVCDNLENFTSGSPFLCMDLSYITALLKDGFGFADSTVLQLTKKVNNIETGWALGATFHLLQSLGISH"}, "B2": {"name": "rmCD39L2: recombinant mouse CD39L2 phosphatase (protein, UniProt Q3U0P5 1-455, looked up)", "Ectonucleoside triphosphate …": "MRKIPNHGTLRMTKVAYPLGLCVGLFIYVAYIKWHRASAAQAFFTIAGAASGARWTQQAFSSPGSAARGHEVFYGIMFDAGSTGTRIHVFQFARPPGETPTLTHETFKALKPGLSAYADDVEKSAQGIQELLNVAKQHIPYDFWKATPLVLKATAGLRLLPGEKAQKLLQKVKEVFKASPFLVGDDCVSIMNGTDEGVSAWITVNFLTGSLKTPGSSSVGMLDLGGGSTQITFLPRVEGTLQASPPGHLTALQMFNRTYKLYSYSYLGLGLMSARLAILGGVEGKPAENDKELVSPCLSPRFRGEWEHAEVTYRISGQKAVGLYELCASRVSEVLRNKVHRTEEAQHVDFYAFSYYYDLAASFGLIDAEKGGSLVVGDFEIAAKYVCRTLETQPPSSPFACMDLTYISLLLHEFGFPGDKVLKLARKIDNVETSWALGAIFHYIDSLKRQKVPAL"}},
  "key": {"[1]": {"experiment": "Phosphatase coupled kinase assay, ERK1 specific activity", "format": "biochemical", "details": "4 mM ATP, 4 mM MBP peptide", "protocol": "(§1) The kinase reactions were carried out in 50 μL of kinase assay buffer including 25 mM Tris, 150 mM NaCl, 5 mM MgCl2, and 5 mM CaCl2 at pH 7.5 in a 96 well plate at room temperature. Each reaction was stopped with 30 μL of Malachite Reagent A and 100 μL of water. The color was developed with 30 μL Malachite Reagent B. The plate was read at 620 nm with a multi-well plate reader. If the predicted phosphate content in the reaction was above 4,000 pmol, the reaction was diluted before phosphate detection.\nA series of reactions were performed with extracellular signal-regulated kinase 1 (ERK1) as the kinase. Various amounts of ERK1 (0, 0.1, 0.2, 0.4 and 0.8 μg) were combined with 4 mM ATP, 4 mM MBP peptide acceptor substrate, and 0.2 μg CD39L2. […] The reactions were stopped after 20 minutes, the Malachite Green assay was performed as described above, and the OD was measured at 620 nm. The results are shown in FIG. 10, wherein the OD reading is plotted against the quantity of ERK1. This plot was then used to determine the specific activity of ERK1. The specific activity was calculated by first determining the slope of the curve (0.7728 OD/μg), which was then multiplied by a conversion factor (4081 pmol/OD) and divided by the reaction time (20 minutes) (0.7728 OD/μg×4081 pmol/OD/20 min=157.69 pmol/min/μg). The coupling efficiency of rhCD39L2 in 4 mM ATP was predicted to be 0.4 based on the data of Example 3 (FIG. 5). The specific activity of the ERK1 was then adjusted for the coupling efficiency and was calculated to be 394.22 pmol/min/μg. (157.69 pmol/min/μg/0.4=394.22 pmol/min/μg)"}, "[2]": {"experiment": "ADP hydrolysis curve with increasing amounts of phosphatase, free phosphate by Malachite Green", "format": "biochemical", "details": "5 minutes", "description": "The relative activity of the phosphatase on ADP and ATP can be measured by creating hydrolysis curves for ADP and ATP. For example, such hydrolysis curves may be created by performing a series of reactions separately combining set quantities of ADP or ATP with varying quantities of phosphatase and detecting the free phosphate produced. An example of such curves is described in Example 1 below. The resulting phosphate levels (or OD readings, which directly correspond to the phosphate levels) can be plotted against the amount of phosphatase used. The phosphate level or OD readings can be compared at the same quantity of the phosphatase to determine the relative activity of the phosphatase for ADP as compared to ATP. […] The amount of phosphatase to be used for kinase reactions is preferably selected from within the rapidly rising portion of the ADP hydrolysis curve. In addition, the relative activity of the phosphatase for ADP versus ATP is preferably compared within this rapidly rising portion of the hydrolysis curve, at or near the steepest portion of the curve. At phosphatase levels below this range, the generated signals are weak, while at phosphatase levels above this range, the ADP hydrolysis approaches completion, which could underestimate the activity of the phosphatase on ADP due to exhaustion of the substrate.\nas §1\nIn this experiment, the relative activity of rhCD39L2 on ADP and ATP was determined. In a first series of reactions, 100 nmol of 2 mM ATP was combined with increasing amounts of rhCD39L2 (0.03125 μg, 0.0625 μg, 0.125 μg, 0.25 μg, 0.5 μg) for 20 minutes. Likewise in a second series of reactions, 100 nmol of 2 mM ADP was combined with the same increasing amounts of rhCD39L2 for 20 minutes. The reactions were stopped after 20 minutes and free phosphate was measured using the Malachite Green assay as described above.\nThe relative activity of recombinant mouse CD 39L2 (rmCD39L2) on ADP and ATP was determined in a series of reactions similar to Example 1. 100 nmol of 2 mM ATP was combined with increasing amounts of rmCD39L2 (0.03125 μg, […], 0.125 0.25 μg, 0.5 μg). Likewise in a second series of reactions, 100 nmol of 2 mM ADP was combined with the same increasing amounts of rmCD39L2. The reactions were stopped after 5 minutes and free phosphate was measured using the Malachite Green assay as described above.\nThe experiment of Example 1 was repeated using recombinant human CD39L4 (rhCD39L4). 100 nmol of ATP (2 mM) was combined with increasing amounts of rhCD39L4 (0.03125 μg, 0.0625 μg, 0.125 μg, 0.25 μg, 0.5 μg, 1.0 μg). Likewise in a second series of reactions, 100 nmol of ADP (2 mM) was combined with the same increasing amounts of rhCD39L4 for 5 minutes. The reactions were stopped after 5 minutes and free phosphate was measured using the Malachite Green assay as described above. […] As such, the necessary preference of the phosphatase for ADP as compared to ATP is present."}, "[3]": {"experiment": "Specific activity of the phosphatase (free phosphate released per time per amount)", "format": "biochemical", "description": "Phosphatases used in embodiments of the invention have a high specific activity on ADP. The specific activity of the phosphatase used in the examples is the amount of free phosphate released from a substrate per unit time and per amount of phosphatase under a given set of conditions, and may be determined at the rising phase of an enzymatic dose curve, such as the hydrolysis curve as described above. In some embodiments, the phosphatase has a specific activity of greater than 100 pmol/min/μg under optimal conditions. The conditions may include optimal pH, salt concentrations, and the presence of any cofactor. In other embodiments, the phosphatase has a specific activity of greater than 1,000 pmol/min/μg. In still other embodiments, the phosphatase has a specific activity of greater than 20,000 pmol/min/μg. When phosphatases having lower specific activity are used, larger amounts of such phosphatases or longer reaction times may be used to achieve the same level of hydrolysis as can be achieved with a phosphatase having higher specific activity."}, "[4]": {"details": "enzyme as obtained from R&D Systems; cited from earlier work"}},
  "data": [
    {"molecule": "ERK1: extracellular signal-regulated kinase 1 from R&D Systems", "values": [
      {"measurement": "slope of the curve OD versus quantity of ERK1", "setting": "[1]; 0.2 μg CD39L2, 20 minutes", "value": 0.7728, "unit": "OD/μg"},
      {"measurement": "specific activity before coupling efficiency adjustment", "setting": "[1]; 20 minutes", "value": 157.69, "unit": "pmol/min/µg"},
      {"measurement": "specific activity adjusted for the coupling efficiency", "setting": "[1]; coupling efficiency 0.4", "value": 394.22, "unit": "pmol/min/µg"}
    ]},
    {"molecule": "B1", "values": [
      {"measurement": "level of activity compared with rhCD39L2", "setting": "[2]; Example 9, up to 1.0 μg", "value": "lower level of activity than rhCD39L2"},
      {"measurement": "specific activity on ADP", "setting": "[3]", "value": "> 1,000 pmol/min/μg"}
    ]},
    {"molecule": "B2", "values": [
      {"measurement": "times greater activity with ADP than with ATP", "setting": "[2]; phosphatase at 0.25 μg", "value": "30-40 times"},
      {"measurement": "specific activity", "setting": "[4]", "value": "> 100,000 pmol/min/μg"}
    ]}
  ]
}
